Assay results: publication PMC4446446 (Nucleic Acids Research, 2015)
Changes are numbered by the printed parent chain. Numbers in names are those of the source.

T1: SDR5C1, wild type, N-terminally His-tagged (human), Q99714
T1 chain: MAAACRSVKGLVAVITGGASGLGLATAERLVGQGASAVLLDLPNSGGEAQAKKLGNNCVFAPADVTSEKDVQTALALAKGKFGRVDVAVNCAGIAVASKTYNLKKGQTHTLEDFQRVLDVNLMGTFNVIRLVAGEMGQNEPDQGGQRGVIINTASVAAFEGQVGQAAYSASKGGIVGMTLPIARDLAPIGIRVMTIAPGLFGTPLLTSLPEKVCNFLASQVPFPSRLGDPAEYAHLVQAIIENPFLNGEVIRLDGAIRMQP

B1: TRMT10C, native (untagged) (enzyme)
chain: MSSKIPAVTYPKNESTPPSEELELDKWKTTMKSSVQEECVSTISSSKDEDPLAATREFIEMWRLLGREVPEHITEEELKTLMECVSNTAKKKYLKYLYTKEKVKKARQIKKEMKAAAREEAKNIKLLETTEEDKQKNFLFLRLWDRNMDIAMGWKGAQAMQFGQPLVFDMAYENYMKRKELQNTVSQLLESEGWNRRNVDPFHIYFCNLKIDGALHRELVKRYQEKWDKLLLTSTEKSHVDLFPKDSIIYLTADSPNVMTTFRHDKVYVIGSFVDKSMQPGTSLAKAKRLNLATECLPLDKYLQWEIGNKNLTLDQMIRILLCLKNNGNWQEALQFVPKRKHTGFLEISQHSQEFINRLKKAKT
B2: SDR5C1, wild type, N-terminally His-tagged, Q99714 1-261 (enzyme)
chain: T1 chain
B3: SDR5C1 N247S, N-terminally His-tagged (enzyme)
chain: T1 chain with N247S
B4: SDR5C1 K172A, N-terminally His-tagged (enzyme)
chain: T1 chain with K172A
B5: SDR5C1 R130C, N-terminally His-tagged (enzyme)
chain: T1 chain with R130C
B6: SDR5C1 P210S, N-terminally His-tagged (enzyme)
chain: T1 chain with P210S
B7: SDR5C1 R226Q, N-terminally His-tagged (enzyme)
chain: T1 chain with R226Q

Legend:
[1] = biological target: B3; test: pull-down
[2] = biological target: B5; test: pull-down
[3] = biological target: B7; test: pull-down
[4] = biological target: B4; test: pull-down
[5] = biological target: B6; test: pull-down
[6] = biological target: T1, SDR5C1, wild type, N-terminally …; test: native gel or EMSA; details: remark: other sources report otherwise
native gel or EMSA = biological target: the molecule itself; test: native gel or EMSA
SEC = biological target: the molecule itself; test: SEC

## B1
[1]
  Complexed TRMT10C (mass percentage of the complex): 9.3%
[2]
  Complexed TRMT10C (mass percentage of the complex): 28.7%
[3]
  Complexed TRMT10C (mass percentage of the complex): 14.3%
[4]
  Complexed TRMT10C (mass percentage of the complex): 43%
[5]
  Complexed TRMT10C (mass percentage of the complex): 39.7%

## B2
[6]
  Tetramerized SDR5C1 (percent): 100%

## B3
Native gel or EMSA
  Tetramerized SDR5C1 (percent): 25.8%

## B4
SEC
  stoichiometry N: 4
Native gel or EMSA
  Tetramerized SDR5C1 (percent): 100%

## B5
SEC
  stoichiometry N: 4
Native gel or EMSA
  Tetramerized SDR5C1 (percent): 100%

## B6
SEC
  stoichiometry N: 4
Native gel or EMSA
  Tetramerized SDR5C1 (percent): 100%

## B7
Native gel or EMSA
  Tetramerized SDR5C1 (percent): 26%
